Reference: patent US20240240160A1, “NOVEL OLIVETOL SYNTHASES FOR C[…]” (priority 2021, published 2024)

B1: PKA56805.1: Type-III PKS enzyme from Apostasia shenzhenica (protein, listed as Apostasia shenzhenica)
chain: MPGVEAVAQNISPARSDGLAAILAIGRANPPNIVEQSSFADLYFRLHNSEHLVDLKKKLQRICDRTAIRKRHFVWDEELLMANPCLRTVTEPSLNARQKVAITEIPKLGAAAATNAIAEWGRPKSDITHLIFCTTSGMDLPGADYQLIRLLGLNDNIQRIMLYQQGCFAGGTVLRLAKVLAESRRSARVLIVCAETTTVLVRSPSVENQDDLVTQALFADGASALIVGADPNAGEKPVFSVFSTSQVLLPDSDGAIGGHVGENGLTATLHRDVPAVISKNVGKCLEEAFTPLGISDWNSIFWAAHPGGRAILDQVEERVGLKPEKMWASRHVLAEYGNMSSVSVHFALDEIRRRSAKEGKATTGDGFEWGVLFGFGPGLTVETVVLRSAPISA
modifications: (1)..(393) PKA56805.1
B2: A0A0D9WZ61: Type-III PKS enzyme from Leersia perrieri (protein, listed as Leersia perrieri)
chain: MAPVPANGAATATATTQEIRRAQRADGPATVLAIGTANPETYVSQDEYADYYFRITKSEHLPELKDKLRRICNKSGIDKRFMYVNEDVMEAHPEFADRNQSSLNARVEIASKAVPELAAAASAKAIAEWGRPATDITHLIFSTYSGVKAPSGDRLLASLLGLRPNVSRTTLSLHGCYGGGRALQLAKELAENNRGARVLVACAEMTLIAFYGPEVGCNDTIVGQALFGDGSGAVIVGADPVDAAGERPLFEMAFASQTTVPDSEGAITMQHTKGGMDYHIGSGIPEMLAGNIERCLADAFDSIGVAADWKDLFWAVHPGGRRILDLIEEALGLDNGAMASRQVLREFGNMSGTTVIFVLNELRRRFKANGAEGADWGALMAFGPGVTIETMLLRVAAGLKGN
modifications: (1)..(402) ProtKB - A0A0D9WZ61
B3: AAZ32093.1: Type-III PKS enzyme from Oncidium Gower Ramsey (protein)
chain: MPSLESIKNAPKTDGFASILAIGSANPENIIEQSTYPDFFFHLTNSEHLVDLKNKFQRICDKTAIRKRHFAWNEELLTANPCLRTFMDNSLNVRQEFVIREIPKLGAQAATKAIQEWGQSKSRITHLIFSTTSGMDLPGADYQLTQILGLNPNIERVMLYHQGCFAGGTTLRLTKSLAESRKGARVLVVCAETTSALTFRAPSEEHQDDLVVQALFGDGASALIVGADPDEAADERASFIIVSTSQVLLSDSAGAIGGHLSEGGLIVTLHRDVPQIVSKNVGNCLKEAFTPLGISDWNSIFWVPHPGGPAILDQIEERVGLNPEKLIISRHMLAEYGNMLGVSVHFALDEMRKRSAKEGKATTGEGLDWGVLLGIGPGITVETVVLHSVRI
modifications: Oncidium hybrid cultivar; (1)..(391) AAZ32093.1
notes: Type-III PKS enzyme from Oncidium Gower Ramsey
B4: AFU07709.1: Type-III PKS enzyme from Paphiopedilum armeniacum (protein, listed as Paphiopedilum armeniacum)
chain: MPGLENRKKVEAPKREEGLATIMAIGRANPPNAMEQSTFPDFYFRVTNSEHMVGLKKKFQRICEKTAIRRRHFVWNEEILNANPCMCTHMEPSLNVGQKIVVAEIPKLGAEAASRAIEVWGQPKSRITHLIFCTTSSMDLLGADYKITRILGLNLNVQRGMLYQQGCFAGGTVLRLAKCFTESQKGTRVLVVCSENAIILVRASSEDYQDDLVTQALFADGASALIVGEDPDEEAKERPIFTIISTTHVILPDSDGAIGGHLGEGGLMATLQRDVPFIISKNVNTCLEESFAPLVISDWNSVFWAPHSGGRAILDQVEERAGLKPEKLWASRHVLAKYGNMSSVCVHFVLDEIRKRSTKEGKTTTGEGFDWGVLFGFGLGLTVETVILRSVPLN
modifications: (1)..(394) AFU07709.1
B5: AFU07710.1: Type-III PKS enzyme from Paphiopedilum × areeanum (protein)
chain: MPGLENRKKVEVPKRAKDLATIMAIGRANPPNAVEQSTFPDFYFRVTNNEHLVGLMKKFQCICEKTVIRRRHFVWDEEILNANPCLRTHMEPSFNVRQKIAVAEIPKMGAEAASRAIKEWGQPKSRITYLIFYTMSGMDLPVTDYKLTRILNLNLNVYQVMLYQWDCIAGGTILCWAKCSAESQKGTRVLVVSSETTTVLVRAPSEDYHDDLVTQDLFGDGASALIVGADPDEEAKERPIFTIVSTSQVVLPDSDGVIGGHLSEGGLMATLHRDVALIISKNVSKCLEEAFVTLGISDWNSIFWAPHPCRRAILDQVEERVGLKPEKLWASRHVLAEFGNMTSVCVHFVLDEIHNRSTQGKTTTGEGFDWGVLFGFGPGLIVETVILRSVPLN
modifications: Paphiopedilum x areeanum; (1)..(393) AFU07710.1
B6: PKU71375.1: Type-III PKS enzyme from Dendrobium catenatum (protein, listed as Dendrobium catenatum)
chain: MAQRADGSASILAIGKATPENFLEQSTYPDYFFRVTNSQHLIDLKKKFQRICDKTSIRKRHFILNEELITKNPCLSKFMENSINTRLEIYAKEIQKLAVEAATKAIQEWGQPKSCITHLIFSTLSDPGLPCGDYHLLQTLGLSPNIERVVILQHGCFAGGTMLRLAKCLAESHKGARVLVVSAETTTMLFRGPSEEHQEDLITQALFADGASALIVGVNPNETIGERASFVITSASQVILPNSSHAITGHLSEGGIKATIHKDVPNLLSNNIGKILEEAFTPLGISNWNSIFWVVHPGGRAILDQLEERVGLKPEKLMISRHVLAEYGNLMGVCVHFVLDEMRKRSIDEGNTTTGEGLEWGVLLGFGLGVTIETIVLQSVSL
modifications: (1)..(382) PKU71375.1
B7: XP_020572025.1: Type-III PKS enzyme from Phalaenopsis equestris (protein, listed as Phalaenopsis equestris)
chain: MPSFPSVKKAPTAEGFASILAIGRANPENFIEQSAYPDFFFRVTNSEHLVDLKKKFQRICDKTAIRKRHFVWNEEFLTANPCFSTFMDKSLNVRQEVAIREIPKLGAKAATKAIEDWGQPKSRITHLIFCTTSGMDLPGADYQLTQILGLNPNVERVMLYQQGCFAGGTTLRLAKCLAESRKGARVLVVCAETTTVLFRAPSEEHQDDLVTQALFADGASAVIAVIVGADPDEAADERASFVIVSASQVLLPDSAGAIGGHVSEGGLLATLHRDVPQIVSKNVGKCLEEAFTPFGISDWNSIFWVPHPGGRAILDQVEERVGLKPEKLSVSRHVLAEYGNMSSVCVHFALDEMRKRSAKEGKATTGEGLEWGVLFGFGPGLTVETVVLQSVPI
modifications: (1)..(393) XP_020572025.1
B8: A0A0D9W1R8: Type-III PKS enzyme from Leersia perrieri (protein, listed as Leersia perrieri)
chain: MGSQGEYYNKEGRGQAAILGIGSAVPPYELPQSSFPDYYFDVSNSNHRQDLKAKFAKICERTMIEKRCVYMSEEFLRSNPSVTAYSSPSIDVRQRLTDATVPELGAAAARVAIADWGRPASEISHLVMCSTVSGCMPGADYEVVKLLGLPLSTKRCMMYHIGCHGGGTVLRIAKDIAENNPGARVLVVCSEVISMALRGPSDSNMGNLVGQALFGDAGAAVVVGTDPVESCGERALFEMVAAMQDIIPDTEEMVAKLREDGLLYSLHRDVPVHIEANIEAIVNKSGVGAKAADWNEDVFWLVHPGGRDILDRVARRLGLRHDKVEVSREVMRKHGNTLSSCVVIAMEEMRRRSAERGMGTAGEGLEWGLLFGFGPGLTVETILLRAPLTHPPPCAHAAVRPQ
modifications: (1)..(402) ProtKB - A0A0D9W1R8
B9: B1Q2B6: Cannabis sativa olivetol synthase (OLS), 3,5,7-trioxododecanoyl-CoA synthase (protein, listed as Cannabis sativa)
chain: MNHLRAEGPASVLAIGTANPENILLQDEFPDYYFRVTKSEHMTQLKEKFRKICDKSMIRKRNCFLNEEHLKQNPRLVEHEMQTLDARQDMLVVEVPKLGKDACAKAIKEWGQPKSKITHLIFTSASTTDMPGADYHCAKLLGLSPSVKRVMMYQLGCYGGGTVLRIAKDIAENNKGARVLAVCCDIMACLFRGPSESDLELLVGQAIFGDGAAAVIVGAEPDESVGERPIFELVSTGQTILPNSEGTIGGHIREAGLIFDLHKDVPMLISNNIEKCLIEAFTPIGISDWNSIFWITHPGGKAILDKVEEKLHLKSDKFVDSRHVLSEHGNMSSSTVLFVMDELRKRSLEEGKSTTGDGFEWGVLFGFGPGLTVERVVVRSVPIKY
modifications: (1)..(385) B1Q2B6 OLIS_CANSA 3,5,7-trioxododecanoyl-CoA synthase

What follows are molecules tested on E. coli derivative strain which overexpressed an acyl-CoA synthetase (fadD) gene and expressed an olivetolic acid cyclase (OAC) from Cannabis sativa (assay: OL, OLA and PDAL production in E. coli from plasmid-expressed Type-III PKS genes). Settings: OL + OLA + PDAL; gene on plasmid.
Assay type: cell-based
Method: To test olivetolic acid production in E. coli, strains comprising a putative OLS gene and an OAC gene from C. sativa were inoculated in multi-well plates containing LB supplemented with 1% glucose and appropriate concentrations of antibiotics. After 6 hours of cultivation at 32° C., the cells were transferred with a 10% inoculum to a P-limited seed medium (see Table 2) and cultivated for ˜18 hours at 32° ° C. to reach an OD of 2.0-4.0. The cultures were transferred with a 20% inoculum in a P-minimal medium (see Table 3) supplemented with 2% glucose and appropriate concentrations of antibiotics. After 3 hours of cultivation at 32° C., the culture was spiked with 4 mM hexanoic acid (˜OD 1.5-2.0). The resulting cultures were then harvested at either 3 hours or 21 hours post hexanoic acid spike; a final OD was taken. 300 μL of butyl acetate containing 500 mg/L undecanoic acid was added to each multi-well plate. The plates were then vortexed for 30 minutes at 1500 rpm and centrifuged for 10 minutes at 4500 rpm. 50 μL of organic layer was transferred to a 96-well plate and derivatized with 50 μL of N,O-Bis(trimethylsilyl)trifluoroacetamide (BSTFA). The plate was then incubated at room temperature for 2 hours to allow for complete derivatization. The samples were then run on GC-FID for analytical quantification of olivetolic acid (OLA), olivetol (OL), PDAL, and hexanoic acid.
Olivetol, PDAL, OLA, HTAL, CBGA and combinations thereof were analyzed by LCMS or LCMS/MS methods using C18 reversed phase chromatography coupled to either EXACTIVE™ (ThermoFisher) or QTRAP® 4500 (Sciex) mass spectrometers.
For reversed phase LCMS, compounds were identified by their LC retention times and MRM transitions specific to the compounds. LCMS/MS analysis was conducted on a Shimadzu UHPLC system coupled with AB Sciex QTRAP 4500 mass spectrometer. Agilent Eclipse XDB C18 column (4.6×3.0 mm, 1.8 μm) was used with a 1-min gradient elution at 1 mL/min using water containing 0.1% ammonia acetate as mobile phase A and 90% methanol containing 0.1% ammonia acetate as mobile phase B. The LC column temperature was maintained at 45° C. Negative ionization mode was used for all the analytes.
The genes for 20 Type-III PKS enzymes were codon optimized for E. coli and cloned under control of a constitutive promoter into an expression vector (p15a replicon, carbenicillin resistance marker). The 20 plasmids were transformed into an E. coli derivative strain which overexpressed an acyl-CoA synthetase (fadD) gene and expressed an olivetolic acid cyclase (OAC) from Cannabis sativa.
The in vivo assay procedure and analytical methods were performed as described above.
In the case of B1, the Total is reported as 37 µM.
B2 showed a Total of 34 µM.
B3 gave a Total of 16 µM.
B4 was tested, and the Total was 0 µM.
B5 was tested, and the Total was 0 µM.
With B6 the Total was 0 µM.
Molecule B7 has a Total of 0 µM.
B8 was tested, and the Total was 0 µM.
B9 showed a Total of 1072 µM.

Same assay, conditions: gene on plasmid, constitutive promoter; culture spiked with 4 mM hexanoic acid
With B1 the OL was 27 µM, the OLA was 10 µM and the PDAL was 0 µM.
Molecule B2 has an OL of 34 µM, an OLA of 0 µM and a PDAL of 0 µM.
Work on B3 yielded an OL of 16 µM, an OLA of 0 µM and a PDAL of 0 µM.
In the case of B4, the OL is reported as 0 µM, the OLA is reported as 0 µM and the PDAL is reported as 0 µM.
Molecule B5 has an OL of 0 µM, an OLA of 0 µM and a PDAL of 0 µM.
Molecule B6 has an OL of 0 µM, an OLA of 0 µM and a PDAL of 0 µM.
B7 showed an OL of 0 µM, an OLA of 0 µM and a PDAL of 0 µM.
B8 was tested, and the OL was 0 µM, the OLA was 0 µM and the PDAL was 0 µM.
Work on B9 yielded an OL of 324 µM, an OLA of 279 µM and a PDAL of 470 µM.
